Tests used:
[1] = tested on: T47D-MUC1* breast cancer cells; assay: ADC cell killing, photographs and PrestoBlue live/dead cell assay; format: cell-based, human; conditions: 500 nM and 6.2 nM, 120 hours
Method: T47D-MUC1* is a cell line in which T47D cells have been transduced to express even more MUC1*. MNC2-ADC was incubated with T47D-WT cells (FIG. 10A-10G) or T47D-MUC1* cells (FIG. 11A-11G). […] These experiments are shown as just one example. […] The toxin that is attached to the anti-MUC1* antibody may be one of several known to those skilled in the art. Similarly, MNC2 may be human or humanized.
In this next experiment, a valine-citrulline p-aminobenzylcarbamate (VC-PAB) linker was used to connect the deglycosylated antibody and the toxin. The linker is separately coupled to the MMAE at one end, then the other end is reacted with maleimide, then coupled to the antibody after reduction through alkylation. MMAE inhibits cell division by blocking the polymerization of tubulin. […] The viability of the 72 hour co-cultures was measured using a cell death indicator called PrestoBlue™ (Thermo Fisher Scientific, Waltham, MA) (FIG. 17). […]
As another example of how antibodies of the invention can be incorporated into ADCs, antibody drug conjugates, for the treatment of MUC1* positive cancers, a toxin was attached to another anti-MUC1* antibody, 20A10. […] The viability of the 72 hour co-cultures was measured using a cell death indicator called PrestoBlue™ (Thermo Fisher Scientific, Waltham, MA) (FIG. 19). […]

[2] = tested on: T47D-MUC1* breast cancer cells; assay: xCELLigence real-time killing assay (impedance); format: cell-based, human; conditions: for ADC concentration at which essentially all (near total) tumor cells were killed: readout 120 hours post ADC addition
Method: In this assay, impedance is measured in real-time. When the adherent cancer cells are killed and come off of the electrode surface, impedance (insulation) decreases. […] Either MNC2-MMAE, DAR 4.1, MN20A10-MMAE, DAR 5.8, MNC2-MMAF, DAR 3.7, MN20A10-MMAF, DAR 3.8, MNC2-Deruxtecan, DAR 7.2, or MN20A10-Deruxtecan, DAR 4.6, was then added to the cancer cells. […] Taxol and Triton are added as the positive killing control. […] Taxol and Triton are added as the positive killing control.
In this assay, impedance is measured in real-time. When the adherent cancer cells are killed and come off of the electrode surface, impedance (insulation) decreases. […] Either MNC2-Exatecan, DAR 8.2, MNC2-Deruxtecan, DAR 4.0, MNC2-MMAE, DAR 4.1, or free Exatecan at 50 μM, was then added to the cancer cells.
To assess real-time killing of target cancer cells including breast cancer cells (T47D), non-small cell lung cancer cells (NCI-H1975) and pancreatic cancer cells (HP AF II) assays were performed on an xCELLigence RTCA MP Instrument (Agilent). Target Cancer cells were seeded onto a multi-electrode well plate at a density of 5000 cells/well (100 μL of a 50,000 cells/mL stock) and incubated for 24 hr in a 37° C./5% CO2 incubator. mAb MNC2 ADCs or mAb MN20A10-ADCs were prepared as a 2× solution in corresponding growth media and 100 μL of each concentration was added to target cells. As a positive control (100% cell killing) cells were treated with either 1% triton or 1 μM Taxol instead of ADC. After 40-120 hours incubation in a 37° C./5% CO2 incubator cell killing was assessed. In this assay, impedance is measured in real-time. When the adherent cancer cells are killed and come off the electrode surface, impedance (insulation) decreases.
MNC2-ADCs and MN20A10-ADCs were also assayed for their ability to kill both low and high MUC1* expressing cells by monitoring killing in real-time using an xCELLigence instrument. In the xCelligence system, target cancer cells, which are adherent, are plated onto electrode array 96-well plates. Adherent cells insulate the electrode and increase the impedance. The number of adherent cancer cells is directly proportional to impedance. […] Therefore, increasing impedance reflects the growth of the cancer cells and decreasing impedance reflects the killing of the cancer cells.

B1: MNC2-Deruxtecan (conjugate)
VH: EVQLVESGGGLVKPGGSLRLSCAASGFTFSGYAMSWVRQAPGKGLEWVSTISSGGTYIYYPDSVKGRFTISRDNAKNSLYLQMNSLRAEDTAVYYCARLGGDNYYEYFDVWGKGTTVTVSS
VL: DIVLTQSPASLAVSPGQRATITCRASKSVSTSGYSYMHWYQQKPGQPPKLLIYLASNLESGVPARFSGSGSGTDFTLTINPVEANDTANYYCQHSRELPFTFGGGTKVEIKRT
killing effect in photographs [1]: significant decrease in cell number | concentration as low as which cancer cells are potently killed ([2]; readout 0 to 120 hours, MNC2-Exatecan DAR 8.2, MNC2-Deruxtecan DAR 4.0 (FIG. 55)): as low as 6.2 nM and even as low as 2.1 nM | ADC concentration at which essentially all (near total) tumor cells were killed [2]: 6 nM

B2: MN20A10-MMAF (conjugate)
VH: QVQLVESGGGLVKPGGSLRLSCAASGFTFSTYAMSWIRQAPGKGLEWVASIGRAGSTYYSDSVKGRFTISRDNAKNSLYLQMNSLRAEDTAVYYCARGPIYNDYDEFAYWGQGTLVTVSS
VL: EIVLTQSPATLSLSPGERATLSCKSSQSVLYSSNQKNYLAWYQQKPGQAPRLLIYWASTRESGIPARFSGSGSGTDFTLTISSLEPEDFAVYYCHQYLSSLTFGGGTKVEIKR
ADC concentration at which essentially all the tumor cells are killed ([2]; readout 40 hours post ADC addition): 56 nM | ADC concentration at which essentially all (near total) tumor cells were killed [2]: 19 nM

Source: patent US12491259B2, “Anti-variable MUC1* antibodies and uses thereof” (Minerva Biotechnologies Corporation, priority 2022, dated 2025)
